Reference: paper PMC12170873, “The Spc105/Kre28 complex promotes mitotic error correction by outer kinetochore recruitment of Ipl1/Sli15” (The EMBO Journal, 2025)

T1: Spc105-Flag/Kre28 complex (S. cerevisiae, UniProt P53148 1-917; Q04431 1-385)
T1 construct: Spc105 (Knl1 homologue), S. cerevisiae; Kre28 (Zwint homologue), S. cerevisiae, wild type; the asterisk is not explained; A potential proteolysis product of full-length Spc105 is marked in the gels; also called Spc105/Kre28; K subcomplex; source: Sf9 insect cells (baculovirus pFAP10), purified on anti-Flag M2 beads; also as part of the co-expressed KMN network (KT1-5 and KT1-6); not shown: Flag, …
T1 sequence (looked up) 1: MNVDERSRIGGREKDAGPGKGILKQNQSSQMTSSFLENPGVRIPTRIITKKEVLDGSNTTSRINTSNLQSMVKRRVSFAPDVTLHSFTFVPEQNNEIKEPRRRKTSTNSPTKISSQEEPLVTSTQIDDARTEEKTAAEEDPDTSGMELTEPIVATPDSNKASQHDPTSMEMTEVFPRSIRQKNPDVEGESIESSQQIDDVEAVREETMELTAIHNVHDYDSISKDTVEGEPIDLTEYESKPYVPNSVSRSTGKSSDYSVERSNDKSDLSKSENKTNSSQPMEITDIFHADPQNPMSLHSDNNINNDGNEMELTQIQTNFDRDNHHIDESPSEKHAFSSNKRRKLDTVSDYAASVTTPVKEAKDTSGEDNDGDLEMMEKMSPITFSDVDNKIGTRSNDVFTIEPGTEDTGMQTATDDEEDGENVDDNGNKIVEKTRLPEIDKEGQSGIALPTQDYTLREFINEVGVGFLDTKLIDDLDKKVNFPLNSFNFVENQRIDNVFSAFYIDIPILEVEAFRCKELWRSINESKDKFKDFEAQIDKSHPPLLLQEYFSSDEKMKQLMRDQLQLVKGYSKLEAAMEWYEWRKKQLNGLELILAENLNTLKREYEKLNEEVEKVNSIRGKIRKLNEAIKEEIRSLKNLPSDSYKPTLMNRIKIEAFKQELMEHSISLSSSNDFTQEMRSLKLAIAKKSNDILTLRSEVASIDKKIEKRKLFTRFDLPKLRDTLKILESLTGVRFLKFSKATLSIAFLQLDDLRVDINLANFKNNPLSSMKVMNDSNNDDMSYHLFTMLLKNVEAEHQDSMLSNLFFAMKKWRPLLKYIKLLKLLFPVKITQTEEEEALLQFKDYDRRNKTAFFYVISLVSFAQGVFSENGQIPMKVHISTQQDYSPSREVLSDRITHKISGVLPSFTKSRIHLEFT
T1 sequence (looked up) 2: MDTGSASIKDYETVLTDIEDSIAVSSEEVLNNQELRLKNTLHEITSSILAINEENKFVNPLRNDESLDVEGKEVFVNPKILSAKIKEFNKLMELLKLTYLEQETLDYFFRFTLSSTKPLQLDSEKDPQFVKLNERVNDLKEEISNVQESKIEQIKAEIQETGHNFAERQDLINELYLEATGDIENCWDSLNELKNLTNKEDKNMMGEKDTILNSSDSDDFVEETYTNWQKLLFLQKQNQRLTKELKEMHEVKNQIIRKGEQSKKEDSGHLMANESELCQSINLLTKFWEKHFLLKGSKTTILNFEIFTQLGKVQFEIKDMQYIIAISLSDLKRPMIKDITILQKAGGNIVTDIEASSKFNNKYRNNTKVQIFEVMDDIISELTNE


How the values were obtained:
Conditions in all cases: both partners purified
[1] = target: T1, Spc105-Flag/Kre28 complex; test: pull-down; KMN or its subcomplexes from Sf9 cells immobilised on anti-Flag M2 beads; 100 µl of 2 µM Ipl1/Sli15 added to ~20 µl beads; 4 °C, 6 h; 25 mM HEPES pH 7.4, 200 mM NaCl, 1 mM MgCl2, 2.5% glycerol, 0.01% Tween-20; eluted with 3xFlag peptide; Coomassie and anti-His blot; also done with prolonged incubation times (Fig. EV3A)
[2] = target: T2, recombinant budding yeast KMN network (Spc105-Flag/Kre28^WT, Mtw1 complex, Ndc80 complex) (S. cerevisiae, UniProt P53148 1-917; Q04431 1-385; P39731 1-289; P40568 1-576; P47149 1-201; Q12143 …); test: cross-linking; recombinant KMN and Ipl1/Sli15 mixed at equimolar amounts, BS3 (d0/d12), 35 °C, 30 min; cross-links identified by mass spectrometry (xQuest)
T2 construct: Spc105 (Knl1 homologue), S. cerevisiae; Kre28 (Zwint homologue), S. cerevisiae, wild type; Mtw1, S. cerevisiae; Dsn1, S. cerevisiae; Nnf1, S. cerevisiae; Nsl1, S. cerevisiae; Ndc80, S. cerevisiae; Nuf2, S. cerevisiae; Spc24, S. cerevisiae; Spc25, S. cerevisiae; also called wild-type Kre28 KMN network; not shown: Flag, C-terminal, kept; copies: + + + + + + + + +

[3] = target: T3, recombinant KMN network containing Kre28^ΔZwint (S. cerevisiae, UniProt P53148 1-917; Q04431 1-385; P39731 1-289; P40568 1-576; P47149 1-201; Q12143 …, ΔZwint (Zwint helix, residues 77–113)); test: pull-down; KMN or its subcomplexes from Sf9 cells immobilised on anti-Flag M2 beads; 100 µl of 2 µM Ipl1/Sli15 added to ~20 µl beads; 4 °C, 6 h; 25 mM HEPES pH 7.4, 200 mM NaCl, 1 mM MgCl2, 2.5% glycerol, 0.01% Tween-20; eluted with 3xFlag peptide; Coomassie and anti-His blot; also done with prolonged incubation times (Fig. EV3A)
T3 construct: Spc105 (Knl1 homologue), S. cerevisiae; Mtw1, S. cerevisiae; Dsn1, S. cerevisiae; Nnf1, S. cerevisiae; Nsl1, S. cerevisiae; Ndc80, S. cerevisiae; Nuf2, S. cerevisiae; Spc24, S. cerevisiae; Spc25, S. cerevisiae; also called Kre28^ΔZwint KMN network; mutant KMN network; source: Sf9 insect cells, baculoviruses KT1-5 and KT1-6 mut, purified via Spc105-Flag on anti-Flag M2 beads; not shown: Flag, …

Binder	binding result [1]	binding result [2]	binding result [3]
Ipl1/6xHis-Sli15 complex, dephosphorylated by λ phosphatase (complex, S. cerevisiae, dephosphorylated by λ phosphatase | dephosphorylated by λ phosphatase, Ipl1 (Aurora B homologue), S. cerevisiae; Sli15 (INCENP homologue), S. cerevisiae; also called Lambda phosphatase-treated Ipl1/Sli15; source: E. coli BL21, purified (HisTrap, SEC), then treated with λ-Protein Phosphatase (NEB) at 30 °C for 30 min) chain 1: MQRNSLVNIKLNANSPSKKTTTRPNTSRINKPWRISHSPQQRNPNSKIPSPVREKLNRLPVNNKKFLDMESSKIPSPIRKATSSKMIHENKKLPKFKSLSLDDFELGKKLGKGKFGKVYCVRHRSTGYICALKVMEKEEIIKYNLQKQFRREVEIQTSLNHPNLTKSYGYFHDEKRVYLLMEYLVNGEMYKLLRLHGPFNDILASDYIYQIANALDYMHKKNIIHRDIKPENILIGFNNVIKLTDFGWSIINPPENRRKTVCGTIDYLSPEMVESREYDHTIDAWALGVLAFELLTGAPPFEEEMKDTTYKRIAALDIKMPSNISQDAQDLILKLLKYDPKDRMRLGDVKMHPWILRNKPFWENKRL chain 2: MDWAIKAARKKTQRKPGSTRSIIETLDDLNNLTTDAHSEINQRLYESSEWLRNNVYMNTLKYEDKKMEESLISPENTHNKMDVEFPKMKGEYELSNSQNDAAKDVTKTPRNGLHNDKSITPKSLRRKEVTEGMNRFSIHDTNKSPVEPLNSVKVDANESEKSSPWSPYKVEKVLRESSKTSESPINTKRFDNQTWAAKEEMENEPILQALKKAESVKVKPPPNSGIARSQRRSNMFVPLPNKDPLIIQHIPPTKSSGSIPKVRTVKESPIAFKKKSTINSPAIRAVENSDTAGSTKASSVFDRLSSIPTKSFENKISRGNVGHKYSSSSIDLTGSPMKKVSQKFKSINSTDTDMQEALRDIFSVKNKITKNNSPKGKNSRKSSIPRFDKTSLKLTTHKKLAIIAEQKKKSKHSSDVHKTGSRPHSISPTKISVDSSSPSKEVKNYYQSPVRGYLRPTKASISPNKNKNLTTSQTPHRLKIKEKTLRKLSPNIADISKPESRKSKNYRLTNLQLLPPAEAERDDLKKKFDKRLSGIMRSQQEHHRRKQEKQKRMSHLEQDLKKQTSFSNDYKDIRLKESLAPFDNHVRDTINKNTAFSTDNILATINTVDHREIIGNVTPKIASVNDSLPEINTDSEDEASVTLAAWAKSPYLQEQLIRQQDINPQTIFGPIPPLHTDEIFPNPRLNRLKPRQIVPKRS	binds		
Ipl1/6xHis-Sli15 complex (wild type, untreated) (complex, S. cerevisiae, Ipl1 (Aurora B homologue), S. cerevisiae; Sli15 (INCENP homologue), S. cerevisiae; the full-length form was preferentially pulled down; also called Ipl1/Sli15; Ipl1/Sli15 complex; source: E. coli BL21, purified (HisTrap, SEC on Superdex 200)) chain 1: MQRNSLVNIKLNANSPSKKTTTRPNTSRINKPWRISHSPQQRNPNSKIPSPVREKLNRLPVNNKKFLDMESSKIPSPIRKATSSKMIHENKKLPKFKSLSLDDFELGKKLGKGKFGKVYCVRHRSTGYICALKVMEKEEIIKYNLQKQFRREVEIQTSLNHPNLTKSYGYFHDEKRVYLLMEYLVNGEMYKLLRLHGPFNDILASDYIYQIANALDYMHKKNIIHRDIKPENILIGFNNVIKLTDFGWSIINPPENRRKTVCGTIDYLSPEMVESREYDHTIDAWALGVLAFELLTGAPPFEEEMKDTTYKRIAALDIKMPSNISQDAQDLILKLLKYDPKDRMRLGDVKMHPWILRNKPFWENKRL chain 2: MDWAIKAARKKTQRKPGSTRSIIETLDDLNNLTTDAHSEINQRLYESSEWLRNNVYMNTLKYEDKKMEESLISPENTHNKMDVEFPKMKGEYELSNSQNDAAKDVTKTPRNGLHNDKSITPKSLRRKEVTEGMNRFSIHDTNKSPVEPLNSVKVDANESEKSSPWSPYKVEKVLRESSKTSESPINTKRFDNQTWAAKEEMENEPILQALKKAESVKVKPPPNSGIARSQRRSNMFVPLPNKDPLIIQHIPPTKSSGSIPKVRTVKESPIAFKKKSTINSPAIRAVENSDTAGSTKASSVFDRLSSIPTKSFENKISRGNVGHKYSSSSIDLTGSPMKKVSQKFKSINSTDTDMQEALRDIFSVKNKITKNNSPKGKNSRKSSIPRFDKTSLKLTTHKKLAIIAEQKKKSKHSSDVHKTGSRPHSISPTKISVDSSSPSKEVKNYYQSPVRGYLRPTKASISPNKNKNLTTSQTPHRLKIKEKTLRKLSPNIADISKPESRKSKNYRLTNLQLLPPAEAERDDLKKKFDKRLSGIMRSQQEHHRRKQEKQKRMSHLEQDLKKQTSFSNDYKDIRLKESLAPFDNHVRDTINKNTAFSTDNILATINTVDHREIIGNVTPKIASVNDSLPEINTDSEDEASVTLAAWAKSPYLQEQLIRQQDINPQTIFGPIPPLHTDEIFPNPRLNRLKPRQIVPKRS	binds	binds	binds
Ipl1/6xHis-Sli15^4E complex (complex, S. cerevisiae, Ipl1 (Aurora B homologue), S. cerevisiae; Sli15 (INCENP homologue), S. cerevisiae, 4E mutant (plasmid pAD146 in pETDuett); also called Sli15^4E mutant; Sli15 R231E R232E L239E K242E; source: E. coli BL21, purified (HisTrap, SEC on Superdex 200)) chain 1: MQRNSLVNIKLNANSPSKKTTTRPNTSRINKPWRISHSPQQRNPNSKIPSPVREKLNRLPVNNKKFLDMESSKIPSPIRKATSSKMIHENKKLPKFKSLSLDDFELGKKLGKGKFGKVYCVRHRSTGYICALKVMEKEEIIKYNLQKQFRREVEIQTSLNHPNLTKSYGYFHDEKRVYLLMEYLVNGEMYKLLRLHGPFNDILASDYIYQIANALDYMHKKNIIHRDIKPENILIGFNNVIKLTDFGWSIINPPENRRKTVCGTIDYLSPEMVESREYDHTIDAWALGVLAFELLTGAPPFEEEMKDTTYKRIAALDIKMPSNISQDAQDLILKLLKYDPKDRMRLGDVKMHPWILRNKPFWENKRL chain 2: MDWAIKAARKKTQRKPGSTRSIIETLDDLNNLTTDAHSEINQRLYESSEWLRNNVYMNTLKYEDKKMEESLISPENTHNKMDVEFPKMKGEYELSNSQNDAAKDVTKTPRNGLHNDKSITPKSLRRKEVTEGMNRFSIHDTNKSPVEPLNSVKVDANESEKSSPWSPYKVEKVLRESSKTSESPINTKRFDNQTWAAKEEMENEPILQALKKAESVKVKPPPNSGIARSQEESNMFVPEPNEDPLIIQHIPPTKSSGSIPKVRTVKESPIAFKKKSTINSPAIRAVENSDTAGSTKASSVFDRLSSIPTKSFENKISRGNVGHKYSSSSIDLTGSPMKKVSQKFKSINSTDTDMQEALRDIFSVKNKITKNNSPKGKNSRKSSIPRFDKTSLKLTTHKKLAIIAEQKKKSKHSSDVHKTGSRPHSISPTKISVDSSSPSKEVKNYYQSPVRGYLRPTKASISPNKNKNLTTSQTPHRLKIKEKTLRKLSPNIADISKPESRKSKNYRLTNLQLLPPAEAERDDLKKKFDKRLSGIMRSQQEHHRRKQEKQKRMSHLEQDLKKQTSFSNDYKDIRLKESLAPFDNHVRDTINKNTAFSTDNILATINTVDHREIIGNVTPKIASVNDSLPEINTDSEDEASVTLAAWAKSPYLQEQLIRQQDINPQTIFGPIPPLHTDEIFPNPRLNRLKPRQIVPKRS	binds		
